{"source": "patent US20210371539A1", "about": "(Genmab, published 2021)", "binders": {"B1": {"name": "IgG1-CD37-37.3-E430G (antibody, V domains shown)", "VH": "QVQVKESGPGLVAPSQSLSITCTVSGFSLTTSGVSWVRQPPGKGLEWLGVIWGDGSTNYHSALKSRLSIKKDHSKSQVFLKLNSLQTDDTATYYCAKGGYSLAHWGQGTLVTVSA", "VL": "DIQMTQSPASLSVSVGETVTITCRASENIRSNLAWYQQKQGKSPQLLVNVATNLADGVPSRFSGSGSGTQYSLKINSLQSEDFGTYYCQHYWGTTWTFGGGTKLEIKR", "modifications": "Conjugated to Alexa Fluor 555 or 647 in the FRET assays only (about 3 dyes per antibody, sites not stated).", "notes": "IgG1 kappa with E430G (EU numbering) in the Fc; also called hexamerization-enhanced CD37 antibody"}}, "key": {"[1]": {"target": "T1, Human CD37 (human, UniProt P11049 1-281)", "T1 construct": "Endogenous CD37 on the human lymphoma cell line Daudi; also called Leukocyte Antigen CD37; GP52-40", "T1 sequence": "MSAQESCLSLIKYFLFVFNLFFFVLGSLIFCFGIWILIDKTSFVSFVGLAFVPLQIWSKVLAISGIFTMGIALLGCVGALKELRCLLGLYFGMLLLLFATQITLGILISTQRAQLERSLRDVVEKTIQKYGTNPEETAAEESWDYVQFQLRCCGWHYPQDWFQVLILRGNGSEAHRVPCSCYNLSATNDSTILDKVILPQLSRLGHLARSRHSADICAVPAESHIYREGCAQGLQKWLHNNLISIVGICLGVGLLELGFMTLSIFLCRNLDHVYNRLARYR", "assay": "conclusion from CDC assays on Daudi and WIL2-S cells"}, "[2]": {"target": "T2, Human CD20 (human, UniProt P11836 1-297)", "T2 construct": "Endogenous CD20 on the human lymphoma cell line Daudi", "T2 sequence": "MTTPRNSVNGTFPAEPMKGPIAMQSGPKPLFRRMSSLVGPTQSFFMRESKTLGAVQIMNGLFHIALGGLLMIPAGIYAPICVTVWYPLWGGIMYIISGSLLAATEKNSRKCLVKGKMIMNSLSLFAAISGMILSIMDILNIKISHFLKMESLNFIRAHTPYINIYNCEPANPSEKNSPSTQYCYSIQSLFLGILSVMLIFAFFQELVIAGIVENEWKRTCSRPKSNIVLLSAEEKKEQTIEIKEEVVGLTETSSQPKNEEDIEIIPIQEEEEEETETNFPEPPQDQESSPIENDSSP", "assay": "flow cytometry FRET with fluorophore-conjugated antibodies on Daudi cells", "description": "(§1) 0.5×10⁶ Daudi cells/well were incubated with 10 μg/mL A555-conjugated donor antibodies and/or 10 μg/mL A647-conjugated acceptor antibodies in a total volume of 100 μL RPMI/0.2% BSA in 96-well round-bottom plates (Greiner Bio-One, Cat No 650101) for 15 minutes at 37° C. in a water bath. Cells were washed twice with FACS buffer, pelleted by centrifugation (3 min at 300×g) and resuspended in 200 μL PBST. Mean fluorescence intensities (MFI) were determined by flow cytometry on a FACS Canto II (BD Biosciences) by recording 10,000 events at 585/42 nm (FL2, donor A555) and […] (FL3), both excited at 488 nm, and at 660/20 nm (FL4, acceptor A647), excited at 635 nm. Unquenched donor fluorescence intensity was determined from cells incubated with only A555-conjugated donor antibodies, and non-enhanced acceptor intensity was determined from cells incubated with only A647-conjugated acceptor antibodies. Proximity-induced FRET was determined by measuring the energy transfer between cells incubated with both A555-conjugated donor and A647-conjugated acceptor antibodies. MFI values were used to calculate FRET according to the following equation: energy transfer (ET)=FL3(D,A)−FL2(D,A)/a−FL4(D,A)/b, wherein a=FL2(D)/FL3(D), b=FL4(A)/FL3(A), D is donor, A is acceptor and FLn (D,A)=donor+acceptor. ET values obtained were normalized according to the following equation: normalized energy transfer (%)=100*ET/FL3(D, A)."}, "[3]": {"target": "B1", "assay": "FRET by flow cytometry, A555/A647-conjugated antibodies on Daudi cells; Fc-Fc interaction between cell-bound antibodies", "description": "as §1, with “ET values obtained were normalized according to the following equation: normalized energy transfer (%)=100*ET/FL3(D, A).” left out"}, "[4]": {"target": "T1, Human CD37", "assay": "flow cytometry FRET with fluorophore-conjugated antibodies on Daudi cells", "description": "as §1"}}}
{"binder": "B1", "values": [{"measurement": "binding result", "setting": "[1]", "value": "binds"}]}
{"binder": "IgG1-CD20-11B8-E430G (antibody, V domains shown, Conjugated to Alexa Fluor 555 or 647 in the FRET assays only (about 3 dyes per antibody, sites not stated)., IgG1 kappa with E430G (EU numbering) in the Fc; also called Hx-CD20-11B8; Hx-CD20-11B) VH: EVQLVQSGGGLVHPGGSLRLSCTGSGFTFSYHAMHWVRQAPGKGLEWVSIIGTGGVTYYADSVKGRFTISRDNVKNSLYLQMNSLRAEDMAVYYCARDYYGAGSFYDGLYGMDVWGQGTTVTVSS VL: EIVLTQSPATLSLSPGERATLSCRASQSVSSYLAWYQQKPGQAPRLLIYDASNRATGIPARFSGSGSGTDFTLTISSLEPEDFAVYYCQQRSDWPLTFGGGTKVEIKR", "values": [{"measurement": "binding result", "setting": "[2]", "value": "binds"}, {"measurement": "binding result", "setting": "[3]", "value": "binds"}]}
{"binder": "IgG1-CD37-37.3 (antibody, V domains shown, Expressed as IgG1 kappa with wild type Fc; In the FRET assays it was conjugated to Alexa Fluor 555 or 647 (about 3 dye molecules per antibody)) VH: QVQVKESGPGLVAPSQSLSITCTVSGFSLTTSGVSWVRQPPGKGLEWLGVIWGDGSTNYHSALKSRLSIKKDHSKSQVFLKLNSLQTDDTATYYCAKGGYSLAHWGQGTLVTVSA VL: DIQMTQSPASLSVSVGETVTITCRASENIRSNLAWYQQKQGKSPQLLVNVATNLADGVPSRFSGSGSGTQYSLKINSLQSEDFGTYYCQHYWGTTWTFGGGTKLEIK", "values": [{"measurement": "binding result", "setting": "[4]", "value": "binds"}]}
{"binder": "IgG1-CD20-11B8 (antibody, V domains shown, Expressed as IgG1 kappa with wild type Fc; In the FRET assays it was conjugated to Alexa Fluor 555 or 647; also called WT type II CD20 antibody IgG1-CD20-11B8) VH: EVQLVQSGGGLVHPGGSLRLSCTGSGFTFSYHAMHWVRQAPGKGLEWVSIIGTGGVTYYADSVKGRFTISRDNVKNSLYLQMNSLRAEDMAVYYCARDYYGAGSFYDGLYGMDVWGQGTTVTVSS VL: EIVLTQSPATLSLSPGERATLSCRASQSVSSYLAWYQQKPGQAPRLLIYDASNRATGIPARFSGSGSGTDFTLTISSLEPEDFAVYYCQQRSDWPLTFGGGTKVEIK", "values": [{"measurement": "binding result", "setting": "[2]", "value": "binds"}]}
